Source: publication PMC10786891, “Massively parallel profiling of RNA-targeting CRISPR-Cas13d”

B1: target 1 del22 (mixed)
RNA 1: CACCCGUGCAAAAAUGCAGGGGUCUAAAACUGAGCGGAUAACCUCUCUAUGG
RNA 2: GGGAAUGGAUCCACAUCUACGAAUUCGUACAUAGAGAGGUUAUCCGCUCACCGAGAUCGGAAGAGCACACGU
B2: target 1 insC 3' of 8,insA 3' of 4 (mixed)
RNA 1: CACCCGUGCAAAAAUGCAGGGGUCUAAAACUGAGCGGAUAACCUCUCUAUGG
RNA 2: GGGAAUGGAUCCACAUCUACGAAUUCGUACCAUAGAGAGGUUAUCCCGCAUCACCGAGAUCGGAAGAGCACACGU
B3: target 1 U8A,G12A (mixed)
RNA 1: CACCCGUGCAAAAAUGCAGGGGUCUAAAACUGAGCGGAUAACCUCUCUAUGG
RNA 2: GGGAAUGGAUCCACAUCUACGAAUUCGUACCAUAGAGAGAUUAACCGCUCACCGAGAUCGGAAGAGCACACGU
B4: target 1 U8G,C21U (mixed)
RNA 1: CACCCGUGCAAAAAUGCAGGGGUCUAAAACUGAGCGGAUAACCUCUCUAUGG
RNA 2: GGGAAUGGAUCCACAUCUACGAAUUCGUACUAUAGAGAGGUUAGCCGCUCACCGAGAUCGGAAGAGCACACGU
B5: target 1 insA 3' of 19,insU 3' of 7 (mixed)
RNA 1: CACCCGUGCAAAAAUGCAGGGGUCUAAAACUGAGCGGAUAACCUCUCUAUGG
RNA 2: GGGAAUGGAUCCACAUCUACGAAUUCGUACCAUAAGAGAGGUUAUCUCGCUCACCGAGAUCGGAAGAGCACACGU
B6: target 1 complement block 6-11 (mixed)
RNA 1: CACCCGUGCAAAAAUGCAGGGGUCUAAAACUGAGCGGAUAACCUCUCUAUGG
RNA 2: GGGAAUGGAUCCACAUCUACGAAUUCGUACCAUAGAGAGGAAUAGGGCUCACCGAGAUCGGAAGAGCACACGU
B7: target 1 C4U,G12C (mixed)
RNA 1: CACCCGUGCAAAAAUGCAGGGGUCUAAAACUGAGCGGAUAACCUCUCUAUGG
RNA 2: GGGAAUGGAUCCACAUCUACGAAUUCGUACCAUAGAGAGCUUAUCCGUUCACCGAGAUCGGAAGAGCACACGU
B8: target 1 insU 3' of 21,insA 3' of 13 (mixed)
RNA 1: CACCCGUGCAAAAAUGCAGGGGUCUAAAACUGAGCGGAUAACCUCUCUAUGG
RNA 2: GGGAAUGGAUCCACAUCUACGAAUUCGUACCUAUAGAGAGAGUUAUCCGCUCACCGAGAUCGGAAGAGCACACGU
B9: target 1 insA 3' of 11,insC 3' of 5 (mixed)
RNA 1: CACCCGUGCAAAAAUGCAGGGGUCUAAAACUGAGCGGAUAACCUCUCUAUGG
RNA 2: GGGAAUGGAUCCACAUCUACGAAUUCGUACCAUAGAGAGGUAUAUCCGCCUCACCGAGAUCGGAAGAGCACACGU
B10: target 1 insA 3' of 22,insC 3' of 16 (mixed)
RNA 1: CACCCGUGCAAAAAUGCAGGGGUCUAAAACUGAGCGGAUAACCUCUCUAUGG
RNA 2: GGGAAUGGAUCCACAUCUACGAAUUCGUACACAUAGACGAGGUUAUCCGCUCACCGAGAUCGGAAGAGCACACGU
B11: target 1 C6G,A14G (mixed)
RNA 1: CACCCGUGCAAAAAUGCAGGGGUCUAAAACUGAGCGGAUAACCUCUCUAUGG
RNA 2: GGGAAUGGAUCCACAUCUACGAAUUCGUACCAUAGAGGGGUUAUCGGCUCACCGAGAUCGGAAGAGCACACGU
B12: target 1 insC 3' of 5,insA 3' of 3 (mixed)
RNA 1: CACCCGUGCAAAAAUGCAGGGGUCUAAAACUGAGCGGAUAACCUCUCUAUGG
RNA 2: GGGAAUGGAUCCACAUCUACGAAUUCGUACCAUAGAGAGGUUAUCCGCCUACACCGAGAUCGGAAGAGCACACGU
B13: target 1 U3C,G13C (mixed)
RNA 1: CACCCGUGCAAAAAUGCAGGGGUCUAAAACUGAGCGGAUAACCUCUCUAUGG
RNA 2: GGGAAUGGAUCCACAUCUACGAAUUCGUACCAUAGAGACGUUAUCCGCCCACCGAGAUCGGAAGAGCACACGU
B14: target 1 insA 3' of 12,insG 3' of 7 (mixed)
RNA 1: CACCCGUGCAAAAAUGCAGGGGUCUAAAACUGAGCGGAUAACCUCUCUAUGG
RNA 2: GGGAAUGGAUCCACAUCUACGAAUUCGUACCAUAGAGAGGAUUAUCGCGCUCACCGAGAUCGGAAGAGCACACGU
B15: target 1 A9G,C22U (mixed)
RNA 1: CACCCGUGCAAAAAUGCAGGGGUCUAAAACUGAGCGGAUAACCUCUCUAUGG
RNA 2: GGGAAUGGAUCCACAUCUACGAAUUCGUAUCAUAGAGAGGUUGUCCGCUCACCGAGAUCGGAAGAGCACACGU
B16: target 1 C6U,A16C (mixed)
RNA 1: CACCCGUGCAAAAAUGCAGGGGUCUAAAACUGAGCGGAUAACCUCUCUAUGG
RNA 2: GGGAAUGGAUCCACAUCUACGAAUUCGUACCAUAGCGAGGUUAUCUGCUCACCGAGAUCGGAAGAGCACACGU
B17: target 1 insU 3' of 13,insA 3' of 11 (mixed)
RNA 1: CACCCGUGCAAAAAUGCAGGGGUCUAAAACUGAGCGGAUAACCUCUCUAUGG
RNA 2: GGGAAUGGAUCCACAUCUACGAAUUCGUACCAUAGAGAGUGUAUAUCCGCUCACCGAGAUCGGAAGAGCACACGU
B18: target 1 insA 3' of 12,insA 3' of 12 (mixed)
RNA 1: CACCCGUGCAAAAAUGCAGGGGUCUAAAACUGAGCGGAUAACCUCUCUAUGG
RNA 2: GGGAAUGGAUCCACAUCUACGAAUUCGUACCAUAGAGAGGAAUUAUCCGCUCACCGAGAUCGGAAGAGCACACGU
B19: target 1 U11C,G13C (mixed)
RNA 1: CACCCGUGCAAAAAUGCAGGGGUCUAAAACUGAGCGGAUAACCUCUCUAUGG
RNA 2: GGGAAUGGAUCCACAUCUACGAAUUCGUACCAUAGAGACGCUAUCCGCUCACCGAGAUCGGAAGAGCACACGU
B20: target 1 U10G,G12C (mixed)
RNA 1: CACCCGUGCAAAAAUGCAGGGGUCUAAAACUGAGCGGAUAACCUCUCUAUGG
RNA 2: GGGAAUGGAUCCACAUCUACGAAUUCGUACCAUAGAGAGCUGAUCCGCUCACCGAGAUCGGAAGAGCACACGU
B21: target 1 insC 3' of 15,insA 3' of 6 (mixed)
RNA 1: CACCCGUGCAAAAAUGCAGGGGUCUAAAACUGAGCGGAUAACCUCUCUAUGG
RNA 2: GGGAAUGGAUCCACAUCUACGAAUUCGUACCAUAGAGCAGGUUAUCCAGCUCACCGAGAUCGGAAGAGCACACGU
B22: target 1 C4A,U11C (mixed)
RNA 1: CACCCGUGCAAAAAUGCAGGGGUCUAAAACUGAGCGGAUAACCUCUCUAUGG
RNA 2: GGGAAUGGAUCCACAUCUACGAAUUCGUACCAUAGAGAGGCUAUCCGAUCACCGAGAUCGGAAGAGCACACGU
B23: target 1 insG 3' of 9,insU 3' of 5 (mixed)
RNA 1: CACCCGUGCAAAAAUGCAGGGGUCUAAAACUGAGCGGAUAACCUCUCUAUGG
RNA 2: GGGAAUGGAUCCACAUCUACGAAUUCGUACCAUAGAGAGGUUAGUCCGUCUCACCGAGAUCGGAAGAGCACACGU
B24: target 1 insC 3' of 20,insC 3' of 12 (mixed)
RNA 1: CACCCGUGCAAAAAUGCAGGGGUCUAAAACUGAGCGGAUAACCUCUCUAUGG
RNA 2: GGGAAUGGAUCCACAUCUACGAAUUCGUACCACUAGAGAGGCUUAUCCGCUCACCGAGAUCGGAAGAGCACACGU
B25: target 1 U11A,G13C (mixed)
RNA 1: CACCCGUGCAAAAAUGCAGGGGUCUAAAACUGAGCGGAUAACCUCUCUAUGG
RNA 2: GGGAAUGGAUCCACAUCUACGAAUUCGUACCAUAGAGACGAUAUCCGCUCACCGAGAUCGGAAGAGCACACGU
B26: target 1 insC 3' of 13,insA 3' of 5 (mixed)
RNA 1: CACCCGUGCAAAAAUGCAGGGGUCUAAAACUGAGCGGAUAACCUCUCUAUGG
RNA 2: GGGAAUGGAUCCACAUCUACGAAUUCGUACCAUAGAGAGCGUUAUCCGACUCACCGAGAUCGGAAGAGCACACGU
B27: target 1 G12U,A14U (mixed)
RNA 1: CACCCGUGCAAAAAUGCAGGGGUCUAAAACUGAGCGGAUAACCUCUCUAUGG
RNA 2: GGGAAUGGAUCCACAUCUACGAAUUCGUACCAUAGAGUGUUUAUCCGCUCACCGAGAUCGGAAGAGCACACGU
B28: target 1 insC 3' of 19,insA 3' of 8 (mixed)
RNA 1: CACCCGUGCAAAAAUGCAGGGGUCUAAAACUGAGCGGAUAACCUCUCUAUGG
RNA 2: GGGAAUGGAUCCACAUCUACGAAUUCGUACCAUCAGAGAGGUUAUACCGCUCACCGAGAUCGGAAGAGCACACGU

Target: T1, EsCas13d, nuclease-dead (Eubacterium siraeum, UniProt B0MS50, R295A;H300A;R849A;H854A)
T1 sequence: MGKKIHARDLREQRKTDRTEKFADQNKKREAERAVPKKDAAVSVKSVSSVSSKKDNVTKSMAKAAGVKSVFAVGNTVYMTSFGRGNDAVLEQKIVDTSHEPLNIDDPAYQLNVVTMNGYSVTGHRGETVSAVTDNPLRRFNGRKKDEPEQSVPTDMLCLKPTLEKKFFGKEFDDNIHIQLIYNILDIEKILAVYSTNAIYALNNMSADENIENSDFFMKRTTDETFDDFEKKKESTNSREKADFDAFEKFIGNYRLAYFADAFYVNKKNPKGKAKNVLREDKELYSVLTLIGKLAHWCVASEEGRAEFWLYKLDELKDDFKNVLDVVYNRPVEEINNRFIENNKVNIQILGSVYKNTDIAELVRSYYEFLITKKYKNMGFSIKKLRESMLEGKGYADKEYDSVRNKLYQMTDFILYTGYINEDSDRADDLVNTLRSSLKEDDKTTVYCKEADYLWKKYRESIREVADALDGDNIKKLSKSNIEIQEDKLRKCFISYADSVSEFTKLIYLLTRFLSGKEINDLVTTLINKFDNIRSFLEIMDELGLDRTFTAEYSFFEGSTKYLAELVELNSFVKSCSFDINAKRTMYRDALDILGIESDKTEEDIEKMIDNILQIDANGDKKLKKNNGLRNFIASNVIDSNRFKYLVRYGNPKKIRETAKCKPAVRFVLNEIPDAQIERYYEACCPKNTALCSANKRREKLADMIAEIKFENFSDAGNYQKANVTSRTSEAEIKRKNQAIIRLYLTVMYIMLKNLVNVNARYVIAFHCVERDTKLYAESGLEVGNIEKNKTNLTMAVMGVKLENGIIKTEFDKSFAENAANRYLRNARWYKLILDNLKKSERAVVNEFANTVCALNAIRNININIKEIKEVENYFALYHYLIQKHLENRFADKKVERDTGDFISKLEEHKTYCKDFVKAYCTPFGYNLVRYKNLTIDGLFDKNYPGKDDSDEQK
Assay: crRNA (strand 1, pre-loaded); Mg2+; 40 mM Tris-HCl pH 7.5, 150 mM NaCl, 6 mM MgCl2, 1 mM DTT, 0.1% Tween-20, 0.2 mg/ml BSA; 25 C; 10 min per concentration, then washed
Details: tags: His6-TwinStrep-SUMO cleaved; N-terminal SNAP kept (SNAP-Surface 488); label: 3' end held by stalled T7 RNA polymerase

Binder	Kd
B1	26.6 ± 1.7 nM
B2	12 ± 0.9 nM
B3	8.6 ± 0.8 nM
B4	8.34 ± 0.26 nM
B5	41.8 ± 2.3 nM
B6	14.5 ± 1.2 nM
B7	22.4 ± 3.3 nM
B8	21.3 ± 1.3 nM
B9	12.7 ± 1.2 nM
B10	~60 nM
B11	13.5 ± 1.3 nM
B12	30 ± 4 nM
B13	36 ± 4 nM
B14	27.7 ± 2 nM
B15	27.3 ± 2.3 nM
B16	40 ± 5 nM
B17	12.3 ± 1.4 nM
B18	14.3 ± 0.7 nM
B19	62 ± 23 nM
B20	22.7 ± 1.3 nM
B21	22.4 ± 1.5 nM
B22	10 ± 0.9 nM
B23	14.4 ± 0.9 nM
B24	11.9 ± 2.4 nM
B25	42 ± 7 nM
B26	6.7 ± 1.3 nM
B27	25 ± 9 nM
B28	47 ± 4 nM
